Source: the supplement of paper PMC11136658

Tested on: peptide library, one residue held at a place counted from the Y acceptor
Assay: relative phosphorylation of the sub-library (ratio to the mean residue at this position); higher = residue favoured
Method in brief: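 Each value expresses phosphorylation relative to the mean randomized residue. Purified recombinant kinases acted for 90 min in 384-well plates on biotinylated Tyr-centred peptide library mixtures, with one residue fixed at one position from −5 to +5, in the presence of 50 μM ATP with γ-32P-ATP. Signals were read by phosphorimaging after capture on streptavidin membranes, then normalized per position to the sum of the 18 randomized residues (16 in the Ser/Thr-free library) and multiplied by that number.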

Chain of FGFR3, construct: aa397-end, human (P22607 397-806, looked up): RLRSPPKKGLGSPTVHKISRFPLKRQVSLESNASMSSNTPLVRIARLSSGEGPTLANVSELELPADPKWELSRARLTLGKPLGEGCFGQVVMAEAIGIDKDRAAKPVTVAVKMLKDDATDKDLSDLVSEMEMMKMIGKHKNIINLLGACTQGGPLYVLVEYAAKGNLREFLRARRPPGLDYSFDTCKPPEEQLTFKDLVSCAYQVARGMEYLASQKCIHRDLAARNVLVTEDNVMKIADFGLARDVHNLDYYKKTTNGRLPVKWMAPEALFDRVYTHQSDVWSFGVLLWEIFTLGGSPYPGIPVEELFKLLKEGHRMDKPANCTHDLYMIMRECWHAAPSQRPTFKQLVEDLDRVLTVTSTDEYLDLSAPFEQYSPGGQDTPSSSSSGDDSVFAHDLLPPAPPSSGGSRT
Chain of IRR, construct: aa945-end, human (P14616 945-1297, looked up): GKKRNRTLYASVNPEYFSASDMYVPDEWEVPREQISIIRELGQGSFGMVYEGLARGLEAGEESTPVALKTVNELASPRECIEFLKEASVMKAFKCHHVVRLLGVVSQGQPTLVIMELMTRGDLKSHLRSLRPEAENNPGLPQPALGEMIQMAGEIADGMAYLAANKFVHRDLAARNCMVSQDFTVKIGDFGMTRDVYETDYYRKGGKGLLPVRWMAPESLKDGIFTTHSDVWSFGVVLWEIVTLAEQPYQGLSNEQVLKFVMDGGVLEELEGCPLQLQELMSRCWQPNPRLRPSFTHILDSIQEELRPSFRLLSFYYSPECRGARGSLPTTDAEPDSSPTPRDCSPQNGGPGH
Chain of HCK, construct: aa230-497, human (P08631 230-497, looked up): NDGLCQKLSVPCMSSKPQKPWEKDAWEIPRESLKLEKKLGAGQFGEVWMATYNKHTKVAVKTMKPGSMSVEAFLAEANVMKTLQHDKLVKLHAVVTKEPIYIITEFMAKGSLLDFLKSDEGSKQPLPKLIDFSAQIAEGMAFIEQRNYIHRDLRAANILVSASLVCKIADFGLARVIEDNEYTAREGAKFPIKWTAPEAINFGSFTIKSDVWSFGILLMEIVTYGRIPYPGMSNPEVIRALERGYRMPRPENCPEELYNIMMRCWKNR

FGFR3, construct: aa397-end, human (from UniProt P22607)
relative phosphorylation
Conditions	at +1	at +2	at +3	at +4	at +5	at -1	at -2	at -3	at -4	at -5
A fixed	0.858	0.5	0.465	0.794	1.13	0.737	0.867	0.899	1.1	0.986
D fixed	0.4	1.08	0.618	1.07	1.09	2.51	1.3	1.51	1.22	1.19
E fixed	0.764	1.5	0.479	1.15	0.944	1.71	1.58	1.73	1.42	1.01
F fixed	1.96	1.73	1.58	1.17	1.08	0.94	0.733	0.807	0.933	0.929
G fixed	0.32	0.27	0.378	0.913	1.22	0.452	1.05	0.939	1.25	1.15
H fixed	1.7	0.959	0.873	1.1	0.962	1.47	1.2	1.17	1.07	1.2
I fixed	1.19	0.857	2.07	0.872	0.763	1.1	0.57	0.533	0.738	0.651
K fixed	0.452	0.502	0.297	0.913	0.753	0.438	1.05	0.976	0.935	1.27
L fixed	1.01	1.46	2.18	0.962	0.881	1.05	0.863	0.663	0.759	0.75
M fixed	1.17	1.46	2.26	1.06	1.05	0.766	0.761	0.747	0.901	0.854
N fixed	0.458	1.01	0.416	0.828	0.943	1.33	1.24	1.35	0.924	1.15
P fixed	1.1	0.528	0.562	1.13	1.22	0.786	0.951	0.904	1.2	1.08
Q fixed	0.865	0.85	0.68	1.05	0.923	0.896	1.14	1.01	1.1	1.01
R fixed	0.577	0.607	0.428	0.953	0.814	0.396	1.1	1.04	1.01	1.27
S fixed	0.709	0.566	0.481	0.931	1.07	0.614	1.09	1.17	0.867	0.971
T fixed	0.867	0.712	0.604	0.814	1.03	0.797	1.01	0.946	0.704	0.82
V fixed	1.59	0.952	1.61	0.948	0.939	0.885	0.732	0.595	0.7	0.682
W fixed	2	2.47	2.02	1.34	1.18	1.14	0.767	1.02	1.17	1.02
pThr fixed	0.874	1.88	0.666	0.864	0.943	1.61	1.28	1.44	1.2	1.16
pTyr fixed	3.07	3.28	0.631	0.962	1	3.24	1.85	1.83	1.55	1.31

HCK, construct: aa230-497, human (from UniProt P08631)
relative phosphorylation
Conditions	at +1	at +2	at +3	at +4	at +5	at -1	at -2	at -3	at -4	at -5
A fixed	1.66	0.982	0.656	0.876	1.06	0.652	1.08	0.95	1.15	1.1
D fixed	0.917	0.585	0.323	0.623	0.676	0.844	1.29	1.43	1.16	1.18
E fixed	1.55	1.19	0.316	0.766	0.746	1.04	1.49	1.65	1.47	1.01
F fixed	0.785	1	2.12	1.08	1.05	1.09	0.717	1.11	0.966	0.987
G fixed	2.28	0.813	0.862	1.11	1.09	0.456	1.31	1.02	1.31	1.18
H fixed	0.812	0.659	0.992	1.09	0.964	0.768	0.915	1.01	0.85	0.907
I fixed	0.815	1.15	1.84	0.87	0.769	2.91	0.843	0.718	0.977	0.922
K fixed	0.253	0.807	0.675	1.31	1.27	0.259	0.633	0.543	0.629	0.91
L fixed	0.816	1.03	1.49	0.907	0.984	2.15	1	0.956	1.18	1.09
M fixed	1.37	1.13	1.1	1.31	1.06	1.12	0.808	0.964	1.11	1.1
N fixed	0.612	0.95	0.477	0.801	0.853	0.414	1.24	1.15	0.817	0.995
P fixed	0.265	0.975	0.758	0.902	1.26	0.769	1.06	1.06	1.15	1.16
Q fixed	0.923	0.888	0.508	0.99	0.731	0.521	1.04	0.867	0.934	0.99
R fixed	0.369	0.993	1.18	1.49	1.51	0.228	0.667	0.58	0.685	0.772
S fixed	1.12	1.17	0.663	0.972	1.05	0.489	1.18	1.02	0.761	0.942
T fixed	0.97	1.42	0.706	0.924	0.998	1.35	1.01	0.961	0.709	0.845
V fixed	1.14	1.17	1.36	0.872	0.811	2.24	0.95	0.807	0.925	0.912
W fixed	1.34	1.08	1.98	1.11	1.12	0.698	0.771	1.2	1.21	0.99
pThr fixed	0.949	1.18	0.296	0.431	0.421	2.4	1.22	1.12	1.05	1.09
pTyr fixed	1.46	1.61	0.497	0.628	0.569	1.09	1.21	1.37	1.4	1.1

IRR, construct: aa945-end, human (from UniProt P14616)
relative phosphorylation
Conditions	at +1	at +2	at +3	at +4	at +5	at -1	at -2	at -3	at -4	at -5
A fixed	1.2	0.697	0.453	0.79	0.702	0.948	1.06	0.957	0.997	1.03
D fixed	0.718	0.923	0.342	1.35	0.583	2.42	1.56	1.39	1.41	1.13
E fixed	1.07	1.49	0.322	1.26	0.575	1.66	1.53	1.53	1.28	1.03
F fixed	1.4	1.19	1.51	1.06	2.09	0.666	0.685	0.903	0.854	0.904
G fixed	0.637	0.368	0.424	0.931	0.838	0.608	1.14	0.972	1.08	0.998
H fixed	1.85	1.07	1.37	1.24	1.21	1.08	0.901	1.13	1.07	1.09
I fixed	0.849	0.881	1.73	0.828	1.03	0.842	0.63	0.618	0.772	0.87
K fixed	0.399	0.686	0.433	0.906	0.693	0.35	0.977	0.864	1.05	1.28
L fixed	1.19	1.32	1.6	0.807	0.985	0.916	0.705	0.717	0.742	0.825
M fixed	2.18	1.44	2.06	0.975	1.06	0.75	0.803	0.779	0.853	0.84
N fixed	0.618	0.911	0.484	1.14	0.844	2.07	1.37	1.45	1.14	1.13
P fixed	0.423	0.796	0.374	0.892	1.37	1.07	1.24	0.834	0.957	0.978
Q fixed	0.998	1.02	0.546	1.04	0.867	0.911	1.18	1.24	1.19	1.12
R fixed	0.353	0.796	0.665	0.918	1.06	0.386	0.992	1.16	1.05	1.19
S fixed	0.835	0.771	0.509	0.977	0.705	0.856	1.06	1.05	0.847	0.88
T fixed	0.867	0.801	0.741	1.07	0.781	0.945	1.05	0.996	0.876	0.803
V fixed	0.906	0.945	1.43	0.85	0.723	0.757	0.651	0.647	0.776	0.806
W fixed	1.21	1.47	2.26	1.01	1.35	0.576	0.576	0.797	0.781	0.766
pThr fixed	1.57	1.06	0.323	0.922	0.584	1.66	1.23	1.27	1.2	1.07
pTyr fixed	1.06	1.64	0.393	1.12	0.513	2.83	1.35	1.26	0.928	1.02
